# Data from patent US8034904B2, “Anti-IGF-I receptor antibody” (Immunogen Inc., priority 2002, dated 2011).
# B1: EM164: murine anti-IGF-I receptor monoclonal antibody, IgG1 with kappa light chain, hybridoma ATCC PTA-4457; heavy SEQ ID NO:7, light SEQ ID NO:8 (antibody)
# heavy: QVQLQQSGAELVKPGASVKLSCKASGYTFTSYWMHWVKQRPGQGLEWIGEINPSNGRTNYNEKFKRKATLTVDKSSSTAYMQLSSLTSEDSAVYYFARGRPDYYGSSKWYFDVWGAGTTVTVSS
# light: DVLMTQTPLSLPVSLGDQASISCRSSQSIVHSNVNTYLEWYLQKPGQSPKLLIYKVSNRFSGVPDRFSGSGSGTDFTLRISRVEAEDLGIYYCFQGSHVPPTFGGGTKLEIKR
# modifications: antibody heavy chain; antibody light chain
# How the values were obtained:
# human IGF-I receptor = assay: FACS binding to cells overexpressing human IGF-I receptor; settings: EM164 50-100 nM
# Procedure: Incubation of EM164 antibody (50-100 nM) in 100 μL cold FACS buffer (1 mg/mL BSA in Dulbecco's MEM medium) was performed using cells overexpressing IGF-I receptor and using cells overexpressing insulin receptor (2×10^5 cells/mL) in a round-bottom 96-well plate for 1 h. The cells were pelleted by centrifugation and washed with cold FACS buffer by gentle flicking, followed by incubation with goat-anti-mouse-IgG-antibody-FITC conjugate (100 μL; 10 μg/mL in FACS buffer) on ice for 1 h. The cells were pelleted, washed, and resuspended in 120 μL of 1% formaldehyde solution in PBS. The plate was analyzed using a FACSCalibur reader (BD Biosciences).
# [1] = target: T1, IGF-I receptor on MCF-7 cells (Homo sapiens, UniProt P08069); assay: FACS binding to human breast cancer MCF-7 cells
# T1 construct: human breast cancer MCF-7 cells, which expressed IGF-I receptor; endogenous in cells; host or cells: MCF-7 human breast cancer cells
# Procedure: The cells were pelleted by centrifugation and washed with cold FACS buffer by gentle flicking, followed by incubation with goat-anti-mouse-IgG-antibody-FITC conjugate (100 μL; 10 μg/mL in FACS buffer) on ice for 1 h. The cells were pelleted, washed, and resuspended in 120 μL of 1% formaldehyde solution in PBS. The plate was analyzed using a FACSCalibur reader (BD Biosciences).
# [2] = test system: IGF-I receptor from cos-7 cells; assay: Immunoprecipitation of IGF-I receptor from cos-7 cells; type: binding; settings: cos-7 cells (African green monkey)
# From the text: (§1) A Western blot of the EM164 antibody immunoprecipitate was detected using a rabbit polyclonal anti-IGF-I receptor beta chain (C-terminus) antibody (Santa Cruz Biotechnology) and a goat-anti-rabbit-IgG-antibody-horseradish peroxidase conjugate, followed by washes and enhanced chemiluminescence (ECL) detection.
# [3] = test system: IGF-I receptor of CHO cells; assay: Immunoprecipitation of IGF-I receptor from CHO cells; type: binding; settings: CHO cells (Chinese hamster)
# From the text: as §1
# [4] = target: T2, SDS-denatured human IGF-I receptor (Homo sapiens, UniProt P08069); assay: Western blot detection of SDS-denatured IGF-I receptor in MCF-7 lysates; type: binding; settings: lysates from MCF-7 cells
# T2 construct: human breast cancer MCF-7 cells, which expressed IGF-I receptor; endogenous in cells; host or cells: MCF-7 human breast cancer cells
# From the text: as §1
# [5] = target: T1, IGF-I receptor on MCF-7 cells; assay: Inhibition of binding of biotinylated IGF-I to MCF-7 cells; type: cell-based; settings: 5 μg/mL antibody, 2 h; 50 ng/mL biotinylated IGF-I, 20 min, 37° C.
# Procedure: The binding of IGF-I to human breast cancer MCF-7 cells was inhibited by EM164 antibody (FIG. 3). […] The cells were then washed twice with serum-free medium to remove unbound biotin-IGF-I, and were then lysed in 50 mM HEPES, pH 7.4, containing 1% NP-40 and protease inhibitors. An Immulon-2HB ELISA plate was coated with a mouse monoclonal anti-IGF-I receptor beta chain antibody and was used to capture the IGF-I receptor and bound biotin-IGF-I from the lysate. […] The wells were washed, incubated with streptavidin-horseradish peroxidase conjugate, washed again, and then detected using ABTS/H2O2 substrate.
# Akt and Erk1/2 [6] = assay: IGF-I receptor signaling in SaOS-2 cells (Western blots, phospho-Akt and phospho-Erk1/2); type: cell-based, human
# Akt and Erk1/2 [7] = assay: IGF-I receptor signaling in MCF-7 cells (Western blots, phospho-Akt and phospho-Erk1/2); type: cell-based, human
# Colo 205 (colon) cells = assay: Growth and survival of Colo 205 cells (MTT assay); type: cell-based, human
# Procedure: (§2) Several human tumor cell lines were tested in serum-free conditions for their growth and survival response to IGF-I. These cell lines were treated with EM164 antibody in the presence of IGF-I, IGF-II, or serum, and their growth and survival responses were measured using an MTT assay after 2-4 days. Approximately 1500 cells were plated in a 96-well plate in regular medium with serum, which was replaced with serum-free medium the following day (either serum-free RPMI medium supplemented with transferrin and BSA, or phenol-red free medium as specified by Dufourny, B. et al., 1997, J. Biol. Chem., 272, 31163-31171). After one day of growth in serum-free medium, the cells were incubated with about 75 μL of 10 μg/mL antibody for 30 min.-3 h, followed by the addition of 25 μL of IGF-I (or IGF-II or serum) solution to obtain a final concentration of 10 ng/mL IGF-I, or 20 ng/mL IGF-II, or 0.04-10% serum. In some experiments, the cells were stimulated first with IGF-I for 15 min before the addition of EM164 antibody, or both IGF-I and EM164 antibody were added together. The cells were then allowed to grow for another 2-3 days. A solution of MTT (3-(4,5)-dimethylthiazol-2-yl)-2,5-diphenyltetrazolium bromide; 25 μL of a 5 mg/mL solution in PBS) was then added and the cells were returned to the incubator for 2-3 h. The medium was then removed and replaced by 100 μL DMSO, mixed, and the absorbance of the plate was measured at 545 nm.
# SK-LU-1 cells = assay: Growth and survival of SK-LU-1 cells (MTT assay); type: cell-based, human
# Procedure: as §2
# NCI-H596 cells = assay: Growth and survival of NCI-H596 cells (MTT assay); type: cell-based, human
# Procedure: as §2
# A 375 (melanoma) cells = assay: Growth and survival of A 375 cells (MTT assay); type: cell-based, human
# Procedure: as §2
# SK-Mel-37 cells = assay: Growth and survival of SK-Mel-37 cells (MTT assay); type: cell-based, human; settings: 5-10 μg/mL EM164, 10 ng/mL IGF-I
# Procedure: as §2, with “A solution of MTT (3-(4,5)-dimethylthiazol-2-yl)-2,5-diphenyltetrazolium bromide; 25 μL of a 5 mg/mL solution in PBS) was then added and the cells were returned to the incubator for 2-3 h.” left out
# [8] = test system: SaOS-2 (osteosarcoma) cells; assay: Growth and survival of SaOS-2 cells (MTT assay); type: cell-based, human
# Procedure: as §2
# A 431 (epidermoid) cells = assay: Growth and survival of A 431 cells (MTT assay); type: cell-based, human
# Procedure: as §2
# [9] = test system: NCI-H838 lung cancer cells; assay: Apoptosis: caspase-cleaved cytokeratin CK18 in NCI-H838 cells; type: cell-based, human; settings: IGF-I or serum, presence vs absence of EM164, 1 day
# Procedure: For measurement of apoptosis, cleavage of the cytokeratin CK18 protein by caspase was measured in NCI-H838 lung cancer cells incubated with IGF-I or serum in the presence or absence of EM164 for 1 day (FIG. 26).
# [10] = test system: Human non-small cell lung cancer Calu-6 xenografts; type: in vivo
# From the text: Human non-small cell lung cancer Calu-6 xenografts were established in immunodeficient mice by subcutaneous injections of 1×10^7 Calu-6 cells.
# [11] = 5-10 μg/mL EM164, 10 ng/mL IGF-I
# [12] = 5-10 μg/mL EM164, MTT or colony formation assay
molecule,measurement,setting,value
B1,fluorescence shift (FACS),human IGF-I receptor,strong fluorescence shift
same,fluorescence shift (FACS),[1],strong fluorescence shift
same,binding to IGF-I receptor (immunoprecipitation),[2],also bound
same,binding to IGF-I receptor (immunoprecipitation),[3],did not bind
same,detection of SDS-denatured human IGF-I receptor in Western blots,[4],did not detect
same,inhibition of IGF-I binding to MCF-7 cells,[5],essentially quantitative
same,EGF-stimulated phosphorylation of Erk1/2,Akt and Erk1/2 [6],did not inhibit
same,intracellular IGF-I receptor signaling,Akt and Erk1/2 [6],almost completely inhibited
same,activation of Akt and Erk1/2,Akt and Erk1/2 [6]; IGF-I stimulated,inhibited in a dose-dependent manner
same,intracellular IGF-I receptor signaling,Akt and Erk1/2 [7],almost completely inhibited
same,activation of Akt and Erk1/2,Akt and Erk1/2 [7]; IGF-I stimulated,inhibited in a dose-dependent manner
same,Inhibition by EM164 antibody of IGF-I-stimulated growth in serum-free medium,Colo 205 (colon) cells; [11],50%
same,% Inhibition by EM164 antibody of Growth/survival of cells in 1.25-10% serum,Colo 205 (colon) cells; [12],Yes
same,Inhibition by EM164 antibody of IGF-I-stimulated growth in serum-free medium,SK-LU-1 cells; [11],100%
same,% Inhibition by EM164 antibody of Growth/survival of cells in 1.25-10% serum,SK-LU-1 cells; [12],No
same,Inhibition by EM164 antibody of IGF-I-stimulated growth in serum-free medium,NCI-H596 cells; [11],100%
same,% Inhibition by EM164 antibody of Growth/survival of cells in 1.25-10% serum,NCI-H596 cells; [12],Weakly
same,Inhibition by EM164 antibody of IGF-I-stimulated growth in serum-free medium,A 375 (melanoma) cells; [11],90%
same,% Inhibition by EM164 antibody of Growth/survival of cells in 1.25-10% serum,A 375 (melanoma) cells; [12],No
same,Inhibition by EM164 antibody of IGF-I-stimulated growth in serum-free medium,SK-Mel-37 cells,85%
same,Inhibition by EM164 antibody of IGF-I-stimulated growth in serum-free medium,[8]; [11],100%
same,% Inhibition by EM164 antibody of Growth/survival of cells in 1.25-10% serum,[8]; [12],Yes
same,Inhibition by EM164 antibody of IGF-I-stimulated growth in serum-free medium,A 431 (epidermoid) cells; [11],85%
same,% Inhibition by EM164 antibody of Growth/survival of cells in 1.25-10% serum,A 431 (epidermoid) cells; [12],Yes
same,caspase-cleaved CK18 levels,[9],greater cleaved CK18 levels
same,toxicity based on weights of the mice,"[10]; EM164 6 injections of 0.8 mg/mouse, i.v.",No toxicity
same,growth of tumors,"[10]; established 100 mm^3 Calu-6 xenografts, EM164 0.8 mg/mouse i.v. x6, taxol 15 mg/kg i.p. x5",significantly slowed
